Results reported in patent US20120058906A1 (published 2012).
Positions count from the first letter of the chain named.

B1: Fab VH1-46_IGHD6-6*01_IGHJ1*01_S102A_S103P_S104F_H111Y & L6_IGKJ1*01 (Fab, V domains shown)
VH: QVQLVQSGAEVKKPGASVKVSCKASGYTFTSYYMHWVRQAPGQGLEWMGIINPSGGSTSYAQKFQGRVTMTRDTSTSTVYMELSSLRSEDTAVYYCAREEYAPFSAEYFQYWGQGTLVTVSS
VL: not shown
notes: Fab made in E. coli; The heavy chain also carries the CH1 with Flag and His tags of Plasmid A, and the light chain the kappa constant region of Plasmid C
B2: Fab VH1-46_IGHD6-6*01_IGHJ1*01_S102A_S103P_S104F & L6_IGKJ1*01_S28P (Fab, V domains shown)
VH: B1 VH with Y111H
VL: EIVLTQSPATLSLSPGERATLSCRASQPVSSYLAWYQQKPGQAPRLLIYDASNRATGIPARFSGSGSGTDFTLTISSLEPEDFAVYYCQQRSNWPPWTFGQGTKVEIKR
notes: Fab

Tests used:
[1] = biological target: T1, rHuman CD44/Fc Chimera, CF (R&D Systems Cat#3660-CD) (human, UniProt P16070 21-220); experiment: ECL (MSD Multi-Spot) binding, antigen spotted on plate; Fab 0.5 nM
T1 construct: Bought Fc chimera; Fc part of the bought chimera not given

[2] = biological target: T2, Recombinant Human DLL4 (R&D Systems Cat#1506-D4/CF) (human, UniProt Q9NR61 27-524); experiment: as above
T2 construct: Bought recombinant protein; also called delta-like protein 4

[3] = biological target: T3, rHuman IGF-1 sR, CF (R&D Systems Cat#391-GR) (human, UniProt P08069 31-932); experiment: as above
T3 construct: Bought soluble receptor; also called insulin-like growth factor-1 soluble receptor; IGF-R1

[4] = biological target: T4, rHuman P-Cadherin/Fc Chimera, CF (R&D Systems Cat#861-PC) (human, UniProt P22223 108-654); experiment: as above
T4 construct: Bought Fc chimera; Fc part of the bought chimera not given

[5] = biological target: T5, rHuman Notch-1/Fc Chimera, CF (R&D Systems Cat#3647-TK) (human, UniProt P46531 19-526); experiment: as above
T5 construct: Bought Fc chimera; Fc part of the bought chimera not given

[6] = biological target: T6, rHuman HGF R/c-MET/Fc Chimera, CF (R&D Systems Cat#358-MT/CF) (human, UniProt P08581 25-932); experiment: as above
T6 construct: Bought Fc chimera; also called HGF R/Fc; hepatocyte growth factor receptor; Fc part of the bought chimera not given

[7] = biological target: T7, rHuman ErbB2/Fc Chimera, CF (R&D Systems Cat#1129-ER) (human, UniProt P04626 23-652); experiment: as above
T7 construct: Bought Fc chimera; also called human epidermal growth factor 2 receptor; HER2/neu; Fc part of the bought chimera not given

[8] = biological target: T8, rHuman Erythropoietin R/Fc Chimera, CF (R&D Systems Cat#963-ER) (human, UniProt P19235 25-250); experiment: as above
T8 construct: Bought Fc chimera; also called EPO R/Fc; erythropoietin receptor; Fc part of the bought chimera not given
T8 sequence: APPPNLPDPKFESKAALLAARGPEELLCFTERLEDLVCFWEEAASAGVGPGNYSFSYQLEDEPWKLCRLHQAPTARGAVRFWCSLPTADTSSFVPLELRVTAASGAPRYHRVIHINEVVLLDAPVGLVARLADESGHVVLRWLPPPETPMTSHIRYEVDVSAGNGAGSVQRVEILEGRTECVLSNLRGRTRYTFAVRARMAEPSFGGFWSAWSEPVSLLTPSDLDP

[9] = biological target: T9, rHuman EGF R/Fc Chimera, CF (R&D Systems Cat#344-ER) (human, UniProt P00533 25-645); experiment: as above
T9 construct: Bought Fc chimera; also called epidermal growth factor receptor; Fc part of the bought chimera not given

[10] = biological target: T1, rHuman CD44/Fc Chimera, CF (R&D Systems …); experiment: ECL (MSD Multi-Spot) binding, antigen spotted on plate; Fab 5 nM
[11] = biological target: T2, Recombinant Human DLL4 (R&D Systems …); experiment: as above
[12] = biological target: T3, rHuman IGF-1 sR, CF (R&D Systems …); experiment: as above
[13] = biological target: T4, rHuman P-Cadherin/Fc Chimera, CF (R&D …); experiment: as above
[14] = biological target: T5, rHuman Notch-1/Fc Chimera, CF (R&D …); experiment: as above
[15] = biological target: T6, rHuman HGF R/c-MET/Fc Chimera, CF (R&D …); experiment: as above
[16] = biological target: T7, rHuman ErbB2/Fc Chimera, CF (R&D …); experiment: as above
[17] = biological target: T8, rHuman Erythropoietin R/Fc Chimera, CF …; experiment: as above
[18] = biological target: T9, rHuman EGF R/Fc Chimera, CF (R&D …); experiment: as above
[19] = biological target: T10, Recombinant Human DLL4 (R&D Systems Cat#1506-D4/CF) (human, UniProt Q9NR61 27-524); experiment: ECL (MSD multi-spot), antigen on plate, Fab 10 nM
T10 construct: Bought recombinant protein; also called delta-like protein 4

[20] = biological target: T11, rHuman P-Cadherin/Fc Chimera, CF (R&D Systems Cat#861-PC) (human, UniProt P22223 108-654); experiment: ECL (MSD multi-spot), antigen on plate, Fab 10 nM
T11 construct: Bought Fc chimera; also called CDH3; not shown: Fc of the bought chimera
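Further: blank spot per well as comparator with Hit at signal to blank ratio of 4 or more.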

Binder	ECL signal [1]	ECL signal [2]	ECL signal [3]	ECL signal [4]	ECL signal [5]	ECL signal [6]	ECL signal [7]	ECL signal [8]	ECL signal [9]	ECL signal [10]	ECL signal [11]	ECL signal [12]	ECL signal [13]	ECL signal [14]	ECL signal [15]	ECL signal [16]	ECL signal [17]	ECL signal [18]	ECL signal [19]	ECL signal [20]
B1	279	2970	164	215	263	319	331	359	273	413	84900	320	437	383	323	315	377	311		
B2																			26900 ECL signal	216 ECL signal
